Laboratory results taken from the supplement of paper PMC7125110.
± gives the standard error. This sample holds only a part of the variants without activity.

B1: glmS ribozyme (parent)
chain: AUAAAAGCGCCAGAACUACAGAAAUGUAGUUGACGAGGAGGAGGUUUAUCGAAUUUUCGGCGGAUGCCUCCAAA

What was measured:
Conditions in all cases: with glucosamine-6-phosphate
glucosamine-6-phosphate [1] = variants of: B1; assay: self-cleavage kobs at 160 uM GlcN6P; higher = faster cleavage; RNA array
In short: (§1)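 Glucosamine-6-phosphate, from 40 μM to 10 mM in HEPES/KCl/Mg(OAc)2 buffer, was flowed over sequenced MiSeq chips carrying barcoded ribozyme variants transcribed in situ by E. coli RNA polymerase. A hybridised Cy3 probe tracked the variants at 37 °C as tiles were imaged over ~14 h. kobs, kcat and KM were obtained by fitting normalised per-tile medians to exponential decays and then applying weighted Michaelis–Menten fits across concentrations.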

glucosamine-6-phosphate [2] = variants of: B1; assay: self-cleavage kobs at 640 uM GlcN6P; higher = faster cleavage; RNA array
In short: as §1

glucosamine-6-phosphate [3] = variants of: B1; assay: self-cleavage kobs at 10000 uM GlcN6P; higher = faster cleavage; RNA array
In short: as §1

glucosamine-6-phosphate [4] = variants of: B1; assay: self-cleavage kobs at 2500 uM GlcN6P; higher = faster cleavage; RNA array
In short: as §1

Variant | self-cleavage kobs at 160 uM GlcN6P (glucosamine-6-phosphate [1]) | self-cleavage kobs at 640 uM GlcN6P (glucosamine-6-phosphate [2]) | self-cleavage kobs at 10000 uM GlcN6P (glucosamine-6-phosphate [3]) | self-cleavage kobs at 2500 uM GlcN6P (glucosamine-6-phosphate [4])
G13A A33C | < 1e-05 s⁻¹ | < 1e-05 s⁻¹ | < 1e-05 s⁻¹ | –
U31C G32C C70G | 0.000701 ± 0.0003 s⁻¹ | – | – | 0.000104 ± 2.4e-05 s⁻¹
A6G A36U G41A U47A C67G | < 1e-05 s⁻¹ | < 1e-05 s⁻¹ | – | < 1e-05 s⁻¹
G7C C16U G44U | < 1e-05 s⁻¹ | – | – | –
C16A G41A U56G | < 1e-05 s⁻¹ | < 1e-05 s⁻¹ | – | –
C16U G40C U49C G51A | < 1e-05 s⁻¹ | < 1e-05 s⁻¹ | – | < 1e-05 s⁻¹
A12G G29A G41C | < 1e-05 s⁻¹ | < 1e-05 s⁻¹ | < 1e-05 s⁻¹ | < 1e-05 s⁻¹
C16A G60C C67G | < 1e-05 s⁻¹ | – | – | < 1e-05 s⁻¹
G51U C61G C71G | 0.000101 ± 2.2e-05 s⁻¹ | 0.000494 ± 0.00014 s⁻¹ | – | 9.55e-05 ± 2.1e-05 s⁻¹
G9C C11G C61G G63U | < 1e-05 s⁻¹ | – | – | < 1e-05 s⁻¹
A14G C58G U69A | 3.98e-05 ± 2e-05 s⁻¹ | 8.05e-05 ± 3.6e-05 s⁻¹ | – | 3.74e-05 ± 1.9e-05 s⁻¹
G13U C34G | < 1e-05 s⁻¹ | < 1e-05 s⁻¹ | < 1e-05 s⁻¹ | < 1e-05 s⁻¹
U31G U45C C67G | 0.000177 ± 7.3e-05 s⁻¹ | – | – | 0.00223 ± 0.0006 s⁻¹
C58G C67G | 5.68e-05 ± 1.1e-05 s⁻¹ | 0.000101 ± 1.3e-05 s⁻¹ | 1.83e-05 ± 8.7e-06 s⁻¹ | 5.23e-05 ± 1e-05 s⁻¹
C8G C11U A48U U57G C71U | < 1e-05 s⁻¹ | – | – | –
A6U G7U G35U U54A | < 1e-05 s⁻¹ | < 1e-05 s⁻¹ | – | < 1e-05 s⁻¹
G43C U55G | < 1e-05 s⁻¹ | – | – | –
A6C G38C | < 1e-05 s⁻¹ | < 1e-05 s⁻¹ | – | –
A12U U46C C67A | 0.00011 ± 2.6e-05 s⁻¹ | – | – | 0.00113 ± 0.0002 s⁻¹
C8U A33C C71G | < 1e-05 s⁻¹ | – | – | –
A12U U56G U57G C58A A64G | 5.96e-05 ± 2.1e-05 s⁻¹ | 0.000137 ± 2.4e-05 s⁻¹ | – | 5.56e-05 ± 2.7e-05 s⁻¹
C11G U31G G44A U65C | < 1e-05 s⁻¹ | < 1e-05 s⁻¹ | – | < 1e-05 s⁻¹
U31C G63A | < 1e-05 s⁻¹ | – | < 1e-05 s⁻¹ | –
U31G U49C C67U | < 1e-05 s⁻¹ | – | – | –
G13U G32U C34A G44A | < 1e-05 s⁻¹ | – | – | < 1e-05 s⁻¹
G9A G43C G44C G62U | < 1e-05 s⁻¹ | < 1e-05 s⁻¹ | – | < 1e-05 s⁻¹
